Data as given in publication PMC11125772, “A Self-Assembling Pfs230D1-Ferritin Nanoparticle Vaccine Has Potent and Durable Malaria Transmission-Reducing Activity” (Vaccines, 2024).

Target: the molecule itself
Assay: SEC-SAXS; SIBYLS beamline 12.3.1; Shodex KW-804 column for Pfs230D1-ferritin, Shodex KW-802.5 column for Pfs230D1; molecular weight from SAXS (ATSAS)

| Protein | stoichiometry N |
| --- | --- |
| Pfs230D1-ferritin (other, Pfs230 of Plasmodium falciparum 3D7 (XP_001349600.1): a portion of the N-terminal disordered region, amino acids 542-588, and domain 1 (D1), amino acids 589-736; linker that contains residues from the N-terminal extension found in bullfrog lower subunit ferritin; Helicobacter pylori ferritin (WP_000949190.1), amino acids 3-167, with I7E and N19Q; Cloned in a modified pHLSec with a secretion …) SVLQSGALPSVGVDELDKIDLSYETTESGDTAVSEDSYDKYASNNTNKEYVCDFTDQLKPTESGPKVKKCEVKVNEPLIKVKIICPLKGSVEKLYDNIEYVPKKSPYVVLTKEETKLKEKLLSKLIYGLLISPTVNEKENNFKEGVIEFTLPPVVHKATVFYFICDNSKTEDDNKKGNRGIVEVYVEPYGNKINGGGGGSGESQVRQQFSKDIEKLLNEQVNKEMQSSNLYMSMSSWCYTHSLDGAGLFLFDHAAEEYEHAKKLIIFLNENNVPVQLTSISAPEHKFEGLTQIFQKAYEHEQHISESINNIVDHAIKSKDHATFNFLQWYVAEQHEEEVLFKDILDKIELIGNENHGLYLADQYVKGIAKSRKS | 24 |
| ferritin (H. pylori ferritin nanoparticle construct without Pfs230D1) (other, linker that contains residues from the N-terminal extension found in bullfrog lower subunit ferritin; Helicobacter pylori ferritin (WP_000949190.1), amino acids 3-167, with I7E and N19Q; Cloned in a modified pHLSec with a secretion signal ahead of the subunit; purified without a tag; Subunit theoretical molecular weight printed as 21.2 kDa; also called ferritin construct; Helicobacter pylori …) GGSGGSGGGGSGESQVRQQFSKDIEKLLNEQVNKEMQSSNLYMSMSSWCYTHSLDGAGLFLFDHAAEEYEHAKKLIIFLNENNVPVQLTSISAPEHKFEGLTQIFQKAYEHEQHISESINNIVDHAIKSKDHATFNFLQWYVAEQHEEEVLFKDILDKIELIGNENHGLYLADQYVKGIAKSRKS | 24 |
